Experimental data as given in the DeepSol protein solubility set.

Test: soluble on expression in E. coli; label from the status in PepcDB or PDB records

Row | Sequence | soluble on expression in E. coli
1 | MSLKKLVIFDLDGTLLNTIADLAHSTNYALNKLGYPTHEIEKYNFMVGNGIDKLFERALPEGEKSKENVLRVRKEFVPYYDIHNADDSRPYPGIPELLSYLQDAGIQITVASNKYQAATQKLIDHYFPEIHFTAVFGQREGIKVKPDPTVVFDILEVAKVTKEEVLYVGDSGVDMQTAANAGVTVCGVTWGFRPRAELEEFSPQYIVDTAEEIKRLILEGHHHHHH | soluble
2 | MEPGLDGGYLLLGVDWAINDKGDTVYRPVGLPDPDKVQRDLASQCASMLNVALRPEMQLEQVGGKTLLVVYVPEADVTHKPIYKKATGLPGGAYRRIGSSDQRCVDEDLWVLRGLEHHHHHH | not soluble
3 | SMDSRLQRIHAEIKNSLKIDNLDVNRCIEALDELASLQVTMQQAQKHTEMITTLKKIRRFKVSQVIMEKSTMLYNKFKNMFLVGEGDSVLEVLFQ | soluble
4 | MKIRSPIVSVLGHVDHGKTTLLDHIRGSAVASREAGGITQHIGATEIPMDVIEGICGDFLKKFSIRETLPGLFFIDTPGHEAFTTLRKRGGALADLAILIVDINEGFKPQTQEALNILRMYRTPFVVAANKIDRIHGWRVHEGRPFMETFSKQDIQVQQKLDTKVYELVGKLHEEGFESERFDRVTDFASQVSIIPISAITGEGIPELLTMLMGLAQQYLREQLKIEEDSPARGTILEVKEETGLGMTIDAVIYDGILRKDDTIAMMTSKDVISTRIRSLLKPRPLEEMRESRKKFQKVDEVVAAAGIKIVAPGIDDVMAGSPLRVVTDPEKVREEILSEIEDIKIDTDEAGVVVKADTLGSLEAVVKILRDMYVPIKVADIGDVSRRDVVNAGIALQEDRVYGAIIAFNVKVIPSAAQELKNSDIKLFQGNVIYRLMEEYEEWVRGIEEEKKKKWMEAIIKPASIRLIPKLVFRQSKPAIGGVEVLTGVIRQGYPLMNDDGETVGTVESMQDKGENLKSASRGQKVAMAIKDAVYGKTIHEGDTLYVDIPENHYHILKEQLSGDLTDEELDLMDKIAEIKRKKNPDWGMKAPF | soluble
5 | GPGSMKNISNKRIIKDLKLLLEEVDANNEANSSGSPHSAAIFSVHTDTIYNWILKVKAPADSVYGGAGNTYQLSVLFSEDYPHEPPTVRFVTPVYSPLVTEEGGICDRMVNDVWTPDQRASDVIKLVLDRVFSQYKNHSDDDVNPEARHYLEKFPQEFAARVRRGG | soluble
6 | MASLLTETMPFRMTMEGTVNGHHFKCTGKGEGNPFEGTQDMKIEVIEGGPLPFAFDILSTSC | soluble
7 | MSSRIRINTKSLLVQPGYSGSKMRDRLFFLLSKYGIRPRDSIGQHFLIIEDVIEKAIETANVNENDVILEVGPGLGFLTDELAKRAKKVYTIEIDQKIIEILKKEYSWNNVKIIQGDAVRVEWPKFNKVVSNIPYKISSPFTFKLLKTDFERAVVMYQLEFALRMVAKPGSRNYSRLSLMAQALGNVEIVMKIGKGAFYPRPKVDSALVLIEPRKDKIVLNENLVKALFQHRRKTVPRALKDSIHMLGVSKDEIRGIINNVPHSNKRVFQLYPEEVKDIEEYLKKHGIIS | soluble
8 | MGSDKIHHHHHHMPMIHYIFNREIVPPAIEPLLKQLFSGQNFTQSDRLLGYSKGRGITWFLNTQAELGINIVLRHYYRGGLFGKVVKDRYLFQRIDQTRAVQEFNLLTQMQRWHLPVPRPIAVEINKQSIFYRAKIMLEKIEHTQDLSKLLQTQPLVAEQYQQLGQLIRQLHDHQIHHSDLNIHNILLDDNGKFWLIDFDKCCIKAGEEWKQANLNRLLRSFHKEQTRLGIQFHQQNWQSLLTGYQQHNQGDNR | not soluble
9 | MPHDPGATRLLAISPHLDDAVLSFGAGLAQAAQDGANVLVYTVFAGAAQPPYSPAAQRMHTIWGLAPDDDAVLYRRKEDIAALDHLRVAHRHGRFLDSIYRKLPDGRWLTAHVEGRQKLAVNDHSPDSDHDLVGEVADDIRSIIDEFDPTLVVTCAAIGEHPDHEATRDAALFATHEKNVPVRLWEDLPYAVFKSGAVELPQGFRLGSADVSSVKPEMRSQKFQAVERYSSQMVLLNGSENNLFDRLDEHARQNAPHGGYGETTWPVVRSDDS | soluble
10 | GQQINIHKPPIPERVQTIQGQVLFTKDDIVHGQQVWQSIGGQQIGSVWGHGSYVAPDWTADWLHREATIMLDSWAQEQGHEHYSDLPAEQQAALKERLKKTMRSNTYDAQTGTITLDDLRVDAMRSNAQYYSELFRDGHEHYAIPQNALNDKAAADDMTAFFWWTSWSASTNAPDSDISYTQNWPHEPLIDNAPPTGNI | not soluble
11 | MKSFLVAGCTSDAGKSVVVAGLCRALTRRGLRVAPFKAQNMSNNSAVTPDGGEIGRAQALQAYACGLTPSVDFNPILLKPGSDRTSQLVVRGIATGNVSARSYIEHRTELRKIASESLNSLRERFDVVVCEGAGSPAETNLRATDVANFGLAEECDLPVYIVGDIDRGGVLAHFYGTHQIVDDADRARIKGFVVNKFRGDVSILEPGLQDLEDRLGVPTVAVLPFIHGLWIDAEDSLQSTIGATVGPAAAPLGTQRLRVAAIRLPRVSNATDVEALACEPGVTVTWTVDPDSVAEADLVVIPGSKATLSDLAWLRSTGVADAIMERARSQRPILGICGGFQMMCSHIDDPVESGSTTPVEGLGIFDVDIEFHPEKTLIRHENGGYEVHHGRVERSTEQPWIGNEGARTQSNFGTHRHGYLEDDEARRDFLGTVSTLAQRPGFVVAPATSFEAERNKQLDVIADAIEQHWDLDQLIAALT | not soluble
12 | MGSDKIHHHHHHMTEQNRDLVLVTGASGFVGSSVARIAQQKGFKVRVLVRATSPRQNVESLDAEIVVGDMRDEASMRNALRGVRYLLHVAADYRLWAPDPSEIERSNLEGTEATMRAALKEGVERIVYTSSVATLKVTSSGQSADETSPLKADQAIGVYKRSKVLAERAVERMIAEDNLPAVIVNPSTPIGPRDVKPTPTGRIIVEAALGKIPAFVDTGLNLVHVDDVAAGHFLALERGKIGERYILGGENLPLQQMLADIAALTGRKAPTLSLPRWPLYPLAMGAEAIAKITKREPFVTVDGLKMSKNKMYFTSAKAERELGYRARPYREGLGDALEWFRQAGYLKA | not soluble
13 | MAHHHHHHMGTLEAQTQGPGSMMETDATAEAAAVAYEDIITRFGAAPITDDLLKRFETVTGTKAHPMLRRGLFYAHRDFEEFLSYYEKGHPIYIYTGRGPSSGALHLGHLLPFIFTKYLQDAFKCYVVIQITDDEKFLRNRSLSYAEVDSYTRENIKDIIACGFDPDKTFIFINSQYLSLKNRYRFSCLVDRMLPISQLRASFGFSNDANVGYAAFPPKQMLPVYSTYFDGLPFTRVPLPVGTGNEDAADAVSTKKASKKTPKKDAVLSPVHVVEELFPDSKRYQKAMCLIASGIEQDPYFRLARDLAPRMGHPKNAYLLGKFLPGLQGSGTKMSASDPNSAIYLTDTPAQIKNKINRYAFSGGRDTEEEHRAFGADLSVDVSVRYLEVFMKDDAELEKLKADYKTGKLLTGEVKATLIGILQGLIKEHAERRDKVDTTMIESFTVKKELQ | soluble
14 | MAPPSDSDPREPSPPLFQGRGLTKRFGSFVANQAIDLDIAGGEVHALLGENGAGKSTLVKLITGLLQPDDGRMIWRGTPISFAGPAEARACGIAAVSQHFALFDNLTVVENVALGLDRRISVGRLATELEQISQRYGLPLDPKREVWRLSVGERQRIEIVRALLQNPQLLILDEPTAVLTPAEADRLFDVLQRLRADGRALLYISHKLDEVKRLASVATILRAGRVVGSCDPRQESAASMARMMVGSDVTAPKQSSHSIGGPLLSVSGLTQRPDDPHGVTLRDIALEVRSGEIVGIAGVAGNGQDELFAALSGETPIAQSDVIHIAGEAAGSLSINQRRRLGAAFVPEQRLGHATVPTMSLSDNALLTGHATGALVKFGLVNRGAALALVDRVSEAFDVRKASRDPEAARLSGGNLQKFIVGREILRQPRLLIVDQPSWGLDAGAASAIRQALLDLAASGAAVLVISQDLDELIEIADRIAVMFHGRLSPPRPVSEIGRDQLGLLMGGSGWPAEVRDVAGALEHHHHHH | not soluble
15 | MQQQGWRTYLYDAEQPYTPVASVTGKGESRQVWYYHTDVTGTPQEVTAADGTLVWAGYIKGFGENAADISNSGAYFHQPLRLPGQYFDDETGLHYNLFRYYAPECGRFVSQDPIGLAGGLNLYQYAPNPIRWIDPLGLAILEHQSNFDAARRTGFENAGMTNPEDVTFSKVDPKTGTVVEFKGPNGAKVAYDAPHADMDVTAGHDKPHVGWQSAGKRGSGGANRGNITYDGPQHPHRSDSKGDDKCLEHHHHHH | not soluble
16 | MSVKKLENGQYQVDVSFGFDPITGERIRTRPVASTRKEALELEAKLRREFQEERARKSRSVSFPTLISIYLASCEIDSKPNYYQNQKYIINKHISDYFLKSDIQKITHREITDFRKHLMETGLSNKSVNNIMTSLSKIFDTAVHEEILKRNPCDNVKRLPLTRKKMKFWRPEEFKKFISLIPQDQLLFKTFYTVAFLTGLRCGEMLALQWKDIDKILLEIDVHKSCTWLDGQFVVTTPKTKNSIRRVSINKKLLKLLERWKEAQEELFNELGIRHSHDTYIFQYKDTPSRKDIFSRKIKYFCKDSDLTPIRLHDFRHSHVALLIHQGEDYITIKERLGHGSVKTTIDVYGHLYPNKQKEMADKLDDLL | not soluble
17 | MSNTPIELKGSSFTLSVVHLHEAEPEVIRQALEDKIAQAPAFLKHAPVVINVSGLESPVNWPELHKIVTSTGLRIIGVSGCKDASLKVEIDRMGLPLLTEGKEKAVRPAPVEPATPSEPPQNANPITKTRLIDVPVRSGQRIYAPQCDLIVTSHVSAGAELIADGNIHVYGMMRGRALAGASGDREAQIFCTHLTAELVSIAGVYWLSDKIPAEFYGKAARLRLADNALTVQPLN | not soluble
18 | SVPIVSAWEKGMEAARALMDKYHVDNDLKANFKLLPDQVEALAAVCKTWLNEEHRGLQLTFTSNKTFVTMMGRFLQAYLQSFAEVTYKHHEPTGCALWLHRCAEIEGELKCLHGSIMINKEHVIEMDVTSENGQRALKEQSSKAKIVKNRWGRNVVQISNTDARCCVHDAACPANQFSGKSCGMFFSEGAKAQVAFKQIKAFMQALYPNAQTGHGHLLMPLRCECNSKPGHAPFLGRQLPKLTPFALSNAEDLDADLISDKSVLASVHHPALIVFQCCNPVYRNSRAQGGGPNCDFKISAPDLLNALVMVRSLWSENFTELPRMVVPEFKWSTKHQYRNVSLPVAHSDARQNPFDF | soluble
19 | MGSDKIHHHHHHALICNSAVTTTASTLYSWHQVRNTLAIMFNKRHIERHQLPCVLKVFNRFTGQEIGQLGNASENGLMVISQLPVLVGPDYELQLRMPLPGGGHQFVNLTASCLWCREDQTPGHYDSGFMLLQSPREYDDFVRSLRDYFSFRPANAPV | not soluble
20 | LASIFVDVSSVEPGVQLTVKFLGKPIFIRRRTEADIELGRSVQLGQLVDTNARNANIDAGAEATDQNRTLDEAGEWLVMWGVCTHLGCVPIGGVSGDFGGWFCPCHGTHYDSAGRIRKGPAPENLPIPLAKFIDETTIQLG | soluble
21 | MRLERVLEEARAKGYPIEDNGLGNLWVVLPRERFKEEMAHYKAMGFNFLADIVGLDYLTYPDPRPERFAVVYELVSLPGWKDGDGSRFFVRVYVPEEDPRLPTVTDLWGSANFLEREVYDLFGIVFEGHPDLRKILTPEDLEGHPLRKDYPLGETPTLFREGRYIIPAEFRAALTGKDPGLTFYKGGSRKGYRSLWADLKKAREVKG | soluble
22 | MGSDKIHHHHHHMFGYVLPLRGELKVKDYEKFKSYYCGLCLSIKKNYGNLPRSVLNYDMTFLAVLLDALEDKKCEFRLNRCIAHPYKKKYAIINNKALDYAAFFNICLVYYKLVDDVNDDKKISSKIKSLLLRGYFKKFPKPFYVYSDYIKSSLTELNKLEKKSNNLTLDEISHPFSDLTAFIISSYADNKPYKDILYNIGYNLGKWIYIMDAYDDLKEDIKLKKFNAINNTMNLDDKPYEDLIKDISPKISFVLSMCGSNCLHNLNLLPLKTNQDILFNILQYGLLDKMNNLNL | not soluble
